Measurements published in publication PMC3161968.

Molecular target: recombinant flagellin type B of P. aeruginosa (P. aeruginosa) (UniProt P72151)
Sequence of UniProt P72151 (P72151 whole entry): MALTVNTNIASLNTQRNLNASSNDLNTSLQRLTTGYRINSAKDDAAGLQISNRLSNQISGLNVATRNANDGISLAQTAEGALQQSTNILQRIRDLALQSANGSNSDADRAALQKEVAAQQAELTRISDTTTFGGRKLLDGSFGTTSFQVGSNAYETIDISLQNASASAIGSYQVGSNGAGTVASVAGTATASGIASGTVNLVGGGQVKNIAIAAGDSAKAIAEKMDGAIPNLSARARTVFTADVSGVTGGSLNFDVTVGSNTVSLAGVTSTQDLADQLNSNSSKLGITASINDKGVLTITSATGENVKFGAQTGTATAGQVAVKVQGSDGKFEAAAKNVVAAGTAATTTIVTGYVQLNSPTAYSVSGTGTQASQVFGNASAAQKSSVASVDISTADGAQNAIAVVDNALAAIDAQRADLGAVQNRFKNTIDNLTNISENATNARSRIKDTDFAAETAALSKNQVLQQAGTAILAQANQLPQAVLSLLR

recombinant His-AprA (alkaline protease of P. aeruginosa) (from UniProt Q03023 10-479) (enzyme)
inhibition of flagellin-induced IL-8 production by HEK/TLR5 cells (30 ng/ml P. aeruginosa flagellin; the pair whose signalling is blocked is m6 with m7); AprA acts by degrading flagellin: 30 ng/mL
